{"source": "the Human Domainome abundance scans (Beltran et al. 2025)", "parents": {"B1": {"name": "Protein C-ets-1, residues 55 to 135; numbered along this chain, P14921 (parent)", "chain": "GFTKEQQRLGIPKDPRQWTETHVRDWVMWAVNEFSLKGVDFQKFCMNGAALCALGKDCFLELAPDFVGDILWEHLEILQKE"}}, "note": "± gives the uncertainty stated by the source."}
{"variants_of": "B1", "assay": "abundance fitness (aPCA) (normalised: wild type 0, dead -1); higher = more abundant; growth selection in yeast, the domain comes from the species named", "conditions": "Homo sapiens"}
{"variant": "L51Q", "abundance fitness": "-0.923 ± 0.11"}
{"variant": "V67Y", "abundance fitness": "-0.319 ± 0.13"}
{"variant": "E76H", "abundance fitness": "-0.085 ± 0.091"}
{"variant": "E76S", "abundance fitness": "-0.021 ± 0.037"}
{"variant": "D40Q", "abundance fitness": "-0.045 ± 0.089"}
{"variant": "C45Q", "abundance fitness": "-0.002 ± 0.059"}
{"variant": "F41K", "abundance fitness": "-0.072 ± 0.062"}
{"variant": "L54P", "abundance fitness": "-0.775 ± 0.072"}
{"variant": "V67F", "abundance fitness": "-0.267 ± 0.16"}
{"variant": "L78G", "abundance fitness": "-0.566 ± 0.04"}
{"variant": "N32C", "abundance fitness": "-0.132 ± 0.044"}
{"variant": "E5Y", "abundance fitness": "-0.045 ± 0.1"}
{"variant": "F2R", "abundance fitness": "-0.298 ± 0.052"}
{"variant": "P12M", "abundance fitness": "-0.747 ± 0.14"}
{"variant": "S35Y", "abundance fitness": "-0.288 ± 0.063"}
{"variant": "R24I", "abundance fitness": "-0.133 ± 0.12"}
{"variant": "Q17G", "abundance fitness": "-0.159 ± 0.033"}
{"variant": "C45K", "abundance fitness": "-0.067 ± 0.08"}
{"variant": "R16W", "abundance fitness": "-0.107 ± 0.062"}
{"variant": "N32V", "abundance fitness": "-0.111 ± 0.031"}
{"variant": "G1D", "abundance fitness": "0.074 ± 0.062"}
{"variant": "D57R", "abundance fitness": "-0.063 ± 0.034"}
{"variant": "L51N", "abundance fitness": "-0.718 ± 0.17"}
{"variant": "C52W", "abundance fitness": "-0.641 ± 0.046"}
{"variant": "G38F", "abundance fitness": "-0.43 ± 0.055"}
{"variant": "V27P", "abundance fitness": "-0.86 ± 0.076"}
{"variant": "M46H", "abundance fitness": "-0.441 ± 0.12"}
{"variant": "F59A", "abundance fitness": "-0.928 ± 0.054"}
{"variant": "D57N", "abundance fitness": "-0.02 ± 0.063"}
{"variant": "K37P", "abundance fitness": "-0.043 ± 0.041"}
{"variant": "F44E", "abundance fitness": "-0.73 ± 0.1"}
{"variant": "P15S", "abundance fitness": "-1.02 ± 0.12"}
{"variant": "S35N", "abundance fitness": "-0.178 ± 0.2"}
{"variant": "P12T", "abundance fitness": "-0.799 ± 0.16"}
{"variant": "K13N", "abundance fitness": "0.008 ± 0.11"}
{"variant": "M46L", "abundance fitness": "-0.074 ± 0.036"}
{"variant": "T21F", "abundance fitness": "-0.11 ± 0.07"}
{"variant": "Q6M", "abundance fitness": "0.024 ± 0.066"}
{"variant": "E33P", "abundance fitness": "-0.796 ± 0.074"}
{"variant": "P12S", "abundance fitness": "-0.28 ± 0.047"}
{"variant": "G55M", "abundance fitness": "-0.433 ± 0.051"}
{"variant": "V23T", "abundance fitness": "-0.126 ± 0.05"}
{"variant": "Q42I", "abundance fitness": "-0.619 ± 0.1"}
{"variant": "D14W", "abundance fitness": "-0.661 ± 0.047"}
{"variant": "E5T", "abundance fitness": "-0.117 ± 0.069"}
{"variant": "E73Y", "abundance fitness": "-0.319 ± 0.11"}
{"variant": "V39I", "abundance fitness": "-0.061 ± 0.06"}
{"variant": "P64H", "abundance fitness": "-0.34 ± 0.091"}
{"variant": "G38D", "abundance fitness": "-0.039 ± 0.05"}
{"variant": "K4R", "abundance fitness": "-0.071 ± 0.036"}
{"variant": "A49V", "abundance fitness": "-0.162 ± 0.023"}
{"variant": "F34P", "abundance fitness": "-0.886 ± 0.06"}
{"variant": "H22Y", "abundance fitness": "-0.625 ± 0.15"}
{"variant": "K4M", "abundance fitness": "-0.043 ± 0.053"}
{"variant": "A50K", "abundance fitness": "0.042 ± 0.075"}
{"variant": "L71S", "abundance fitness": "-0.805 ± 0.089"}
{"variant": "G10P", "abundance fitness": "-0.263 ± 0.035"}
{"variant": "F66S", "abundance fitness": "0.036 ± 0.036"}
{"variant": "E76W", "abundance fitness": "-0.109 ± 0.051"}
{"variant": "A30R", "abundance fitness": "-0.643 ± 0.045"}
{"variant": "D40I", "abundance fitness": "-0.32 ± 0.12"}
{"variant": "E33K", "abundance fitness": "-0.001 ± 0.05"}
{"variant": "K43C", "abundance fitness": "-0.206 ± 0.039"}
{"variant": "V27H", "abundance fitness": "-0.931 ± 0.19"}
{"variant": "V39Y", "abundance fitness": "-0.688 ± 0.11"}
{"variant": "A50T", "abundance fitness": "-0.026 ± 0.041"}
{"variant": "K13F", "abundance fitness": "-0.152 ± 0.057"}
{"variant": "I70M", "abundance fitness": "-0.102 ± 0.063"}
{"variant": "Q17C", "abundance fitness": "-0.034 ± 0.07"}
{"variant": "P15W", "abundance fitness": "-0.685 ± 0.085"}
{"variant": "F66L", "abundance fitness": "-0.022 ± 0.043"}
{"variant": "Q7L", "abundance fitness": "-0.02 ± 0.034"}
{"variant": "R24E", "abundance fitness": "-0.275 ± 0.05"}
{"variant": "M46Q", "abundance fitness": "-0.335 ± 0.065"}
{"variant": "W26D", "abundance fitness": "-0.668 ± 0.064"}
{"variant": "Q17A", "abundance fitness": "0.013 ± 0.029"}
{"variant": "G55K", "abundance fitness": "0.029 ± 0.059"}
{"variant": "P15M", "abundance fitness": "-0.286 ± 0.081"}
{"variant": "E76N", "abundance fitness": "0.057 ± 0.32"}
{"variant": "W18R", "abundance fitness": "-0.733 ± 0.061"}
{"variant": "A50R", "abundance fitness": "-0.063 ± 0.034"}
{"variant": "L9T", "abundance fitness": "-0.082 ± 0.048"}
{"variant": "P12G", "abundance fitness": "-0.427 ± 0.034"}
{"variant": "L54Y", "abundance fitness": "-0.292 ± 0.033"}
{"variant": "I11Y", "abundance fitness": "-0.207 ± 0.047"}
{"variant": "T3V", "abundance fitness": "-0.063 ± 0.041"}
{"variant": "L9R", "abundance fitness": "-0.017 ± 0.039"}
{"variant": "F41R", "abundance fitness": "-0.094 ± 0.03"}
{"variant": "Q7R", "abundance fitness": "-0.034 ± 0.031"}
{"variant": "L62F", "abundance fitness": "-0.298 ± 0.062"}
{"variant": "I70D", "abundance fitness": "-0.532 ± 0.099"}
{"variant": "S35T", "abundance fitness": "-0.034 ± 0.041"}
{"variant": "C58Y", "abundance fitness": "0.008 ± 0.048"}
{"variant": "T19R", "abundance fitness": "-0.205 ± 0.03"}
{"variant": "L51I", "abundance fitness": "-0.15 ± 0.057"}
{"variant": "I77G", "abundance fitness": "0.027 ± 0.035"}
{"variant": "A63G", "abundance fitness": "-0.262 ± 0.034"}
{"variant": "L71D", "abundance fitness": "-0.657 ± 0.14"}
{"variant": "P15C", "abundance fitness": "-0.254 ± 0.075"}
{"variant": "H74T", "abundance fitness": "-0.265 ± 0.053"}
{"variant": "P64Q", "abundance fitness": "-0.288 ± 0.065"}
{"variant": "E33A", "abundance fitness": "-0.071 ± 0.033"}
{"variant": "T19V", "abundance fitness": "-0.635 ± 0.045"}
{"variant": "W26I", "abundance fitness": "-1.1 ± 0.15"}
{"variant": "V27R", "abundance fitness": "-0.876 ± 0.042"}
{"variant": "R8E", "abundance fitness": "-0.074 ± 0.048"}
{"variant": "V27L", "abundance fitness": "-0.013 ± 0.03"}
{"variant": "Q17H", "abundance fitness": "-0.115 ± 0.069"}
{"variant": "C52M", "abundance fitness": "-0.079 ± 0.04"}
{"variant": "K43G", "abundance fitness": "-0.289 ± 0.038"}
{"variant": "E61M", "abundance fitness": "-0.286 ± 0.079"}
{"variant": "G55F", "abundance fitness": "-0.992 ± 0.15"}
{"variant": "I70Y", "abundance fitness": "-0.146 ± 0.067"}
{"variant": "V31S", "abundance fitness": "-0.076 ± 0.03"}
{"variant": "P15Q", "abundance fitness": "-0.838 ± 0.19"}
{"variant": "V31F", "abundance fitness": "-0.645 ± 0.067"}
{"variant": "C58Q", "abundance fitness": "0.045 ± 0.044"}
{"variant": "C52P", "abundance fitness": "-0.896 ± 0.073"}
{"variant": "L36N", "abundance fitness": "-0.691 ± 0.26"}
{"variant": "P12H", "abundance fitness": "-0.379 ± 0.12"}
{"variant": "N47K", "abundance fitness": "-0.204 ± 0.082"}
{"variant": "Q42V", "abundance fitness": "-0.358 ± 0.044"}
{"variant": "K37E", "abundance fitness": "0.044 ± 0.047"}
{"variant": "E5G", "abundance fitness": "-0.253 ± 0.028"}
{"variant": "G48K", "abundance fitness": "-0.911 ± 0.35"}
{"variant": "N47M", "abundance fitness": "-0.881 ± 0.1"}
{"variant": "E61K", "abundance fitness": "0.066 ± 0.077"}
{"variant": "G48A", "abundance fitness": "-0.972 ± 0.093"}
{"variant": "T21R", "abundance fitness": "0.039 ± 0.029"}
{"variant": "D57E", "abundance fitness": "0.001 ± 0.045"}
{"variant": "G68Q", "abundance fitness": "-0.727 ± 0.11"}
{"variant": "Q7D", "abundance fitness": "0 ± 0.075"}
{"variant": "E5A", "abundance fitness": "-0.062 ± 0.045"}
{"variant": "D14G", "abundance fitness": "-0.844 ± 0.048"}
{"variant": "I77M", "abundance fitness": "-0.009 ± 0.063"}
{"variant": "L71F", "abundance fitness": "-0.697 ± 0.15"}
{"variant": "W18G", "abundance fitness": "-0.992 ± 0.074"}
{"variant": "M28R", "abundance fitness": "-0.004 ± 0.029"}
{"variant": "K56L", "abundance fitness": "-0.635 ± 0.054"}
{"variant": "E73A", "abundance fitness": "-0.079 ± 0.054"}
{"variant": "D25C", "abundance fitness": "-0.01 ± 0.048"}
{"variant": "L60M", "abundance fitness": "-0.067 ± 0.059"}
{"variant": "Q17L", "abundance fitness": "-0.088 ± 0.045"}
{"variant": "E20V", "abundance fitness": "-0.019 ± 0.023"}
{"variant": "W29V", "abundance fitness": "-0.767 ± 0.044"}
{"variant": "D40K", "abundance fitness": "-0.234 ± 0.09"}
{"variant": "C45F", "abundance fitness": "-0.028 ± 0.081"}
{"variant": "K56M", "abundance fitness": "-0.357 ± 0.037"}
{"variant": "W18K", "abundance fitness": "-1.01 ± 0.18"}
{"variant": "R24S", "abundance fitness": "-0.152 ± 0.035"}
{"variant": "W26V", "abundance fitness": "-0.863 ± 0.041"}
{"variant": "N32M", "abundance fitness": "-0.119 ± 0.055"}
{"variant": "G68N", "abundance fitness": "-0.265 ± 0.09"}
{"variant": "I11R", "abundance fitness": "-0.132 ± 0.038"}
{"variant": "K13D", "abundance fitness": "-0.054 ± 0.09"}
{"variant": "A49N", "abundance fitness": "-0.139 ± 0.053"}
{"variant": "R16A", "abundance fitness": "-0.009 ± 0.039"}
{"variant": "W72R", "abundance fitness": "-0.577 ± 0.038"}
{"variant": "Q42K", "abundance fitness": "-0.075 ± 0.076"}
{"variant": "A50F", "abundance fitness": "-0.375 ± 0.084"}
{"variant": "L62C", "abundance fitness": "-0.265 ± 0.048"}
{"variant": "D40L", "abundance fitness": "-0.482 ± 0.056"}
{"variant": "Q42D", "abundance fitness": "-0.029 ± 0.058"}
{"variant": "L36I", "abundance fitness": "-0.215 ± 0.13"}
{"variant": "I11K", "abundance fitness": "-0.695 ± 0.087"}
{"variant": "T21H", "abundance fitness": "-0.067 ± 0.074"}
{"variant": "V39G", "abundance fitness": "-0.714 ± 0.046"}
